Data published in article PMC10504179.

B1: single nicked 40 nt dsDNA (Template T + N1 + N2) (dsDNA)
DNA 1: ATTGAGTGGACAAAGTATCGTAGGGTAGTATTGGTGGATA
DNA 2: TATCCACCAATACTACCCTA
DNA 3: CGATACTTTGTCCACTCAAT
modifications: none; 5' end at nick not phosphorylated
B2: 1 nt gapped 40 nt dsDNA (Template T + G1 + G2) (dsDNA)
DNA 1: B1 DNA 1
DNA 2: TATCCACCAATACTACCCTAC
DNA 3: ATACTTTGTCCACT
modifications: none; 5' end at gap not phosphorylated
B3: single nick with 10 nt 5'-flap 40 nt dsDNA (Template T + F1 + N2) (dsDNA)
DNA 1: B1 DNA 1
DNA 2: TATCCACCAATACTACCCTA
DNA 3: TAACGCTGGGCGATACTTTGTCCACTCAAT
modifications: none; 5' end of flap not phosphorylated

Key:
DrLigA = DrLigA (Deinococcus radiodurans, UniProt Q9RSQ5 1-700); assay: EMSA; 5 mM MgSO4, 5 mM MnSO4, 300 µM NAD+; 100 nM DNA, tight at 10-fold protein; 20 mM Bis-Tris pH 6.0, 5 mM MgSO4, 5 mM MnSO4, 300 µM NAD+, 25% glycerol; 100 nM DNA; 15 min at room temperature; 6% PAGE, 1x TBE, 4 °C
DrLigAΔBRCT = DrLigAΔBRCT (Deinococcus radiodurans, UniProt Q9RSQ5 1-600); assay: EMSA; 5 mM MgSO4, 5 mM MnSO4, 300 µM NAD+; no complex up to 1:10 DNA:protein (100 nM DNA); 20 mM Bis-Tris pH 6.0, 5 mM MgSO4, 5 mM MnSO4, 300 µM NAD+, 25% glycerol; 100 nM DNA; 15 min at room temperature; 6% PAGE, 1x TBE, 4 °C

| Binder | binding result (DrLigA) | binding result (DrLigAΔBRCT) |
| --- | --- | --- |
| B1 | binds | no binding |
| B2 | binds | no binding |
| B3 |  | no binding |
